Data reported in the supplement of paper PMC10266784.

B1: library; numbered along this chain (parent)
chain: MAAAAAAAAEQQSSNGPVKKSMREKAVERRSVNKEHNSNFKAGYIPIDEDRLHKTGLRGRKGNLAICVIILLFILAVINLIITLVIWAVIRIGPNGCDSMEFHESGLLRFKQVSDMGVIHPLYKSTVGGRRNENLVITGNNQPIVFQQGTTKLSVENNKTSITSDIGMQFFDPRTQNILFSTDYETHEFHLPSGVKSLNVQKASTERITSNATSDLNIKVDGRAIVRGNEGVFIMGKTIEFHMGGNMELKAENSIILNGSVMVSTTRLPSSSSGDQLGSGDWVRYKLCMCADGTLFKVQVTSQNMGCQISDNPCGNTH

Variants of: B1
Assay: SGCB cell-surface expression functional score (HA stain, bin4 vs bin1, normalised to synonymous) (log10 ratio); higher = more cell-surface SGCB (functional)
Procedure: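 Deep mutational scan of full-length human SGCB (YFP-SGCB-HA, NNN codon sublibraries A-F) delivered by lentivirus at low MOI into ADG-HEK293 cells stably expressing SGCA, SGCD and SGCG. YFP-positive cells were stained for surface HA on unpermeabilized cells and FACS-sorted into bins. The functional score is log10(frequency in high bin 4 / frequency in low bin 1), normalised per chunk so that synonymous variants have mean 0 and SD 0.5. Scores are the median over codons and over duplicate biological replicates; scores below -0.5 are called non-functional. Scale: negative means deleterious.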

Going from L191T to E206N, the “SGCB cell-surface expression functional score (log10)” value rises from -1.31 to 0.66.

Going from T209M to C290I, the “SGCB cell-surface expression functional score (log10)” value falls from 0.74 to 0.02.

G149M and T317R are within 0.2 log units of each other in “SGCB cell-surface expression functional score (log10)” value: -0.18 for the first, -0.1 for the second.

Compared with Q303R, K25E is higher in “SGCB cell-surface expression functional score (log10)” value: -0.45 for the first, 0.07 for the second.

First: R267G
Second: P313C
The “SGCB cell-surface expression functional score (log10)” value of the first is higher: 0.49 for the first, 0.15 for the second.

First: G56N
Second: S302M
The “SGCB cell-surface expression functional score (log10)” value of the first is higher: -0.1 for the first, -1.5 for the second.

First: G106F
Second: I78E
The “SGCB cell-surface expression functional score (log10)” value of the first is lower: -1.86 for the first, -0.45 for the second.

First: M289Q
Second: Y184E
The “SGCB cell-surface expression functional score (log10)” value of the first is lower: -1.35 for the first, -0.73 for the second.

Compared with G129K, L122T is higher in “SGCB cell-surface expression functional score (log10)” value: -1.37 for the first, 0.13 for the second.

First: P46D
Second: G16Y
The “SGCB cell-surface expression functional score (log10)” value of the first is lower: -0.14 for the first, 0.23 for the second.

Going from F189M to N217S, the “SGCB cell-surface expression functional score (log10)” value rises from -0.25 to 0.54.

S272R and P269H are within 0.2 log units of each other in “SGCB cell-surface expression functional score (log10)” value: 0.18 for the first, 0.32 for the second.

Compared with E188S, C290V is lower in “SGCB cell-surface expression functional score (log10)” value: -0.61 for the first, -0.97 for the second.

Q12V and T186L are within 0.2 log units of each other in “SGCB cell-surface expression functional score (log10)” value: -0.06 for the first, -0.15 for the second.

First: C288H
Second: A251Y
The “SGCB cell-surface expression functional score (log10)” value of the first is higher: -1 for the first, -1.33 for the second.

Compared with G315Y, L191F is lower in “SGCB cell-surface expression functional score (log10)” value: 0.26 for the first, -0.08 for the second.

Compared with F189T, K202D is lower in “SGCB cell-surface expression functional score (log10)” value: -1.23 for the first, -1.97 for the second.

First: F110E
Second: H53N
The “SGCB cell-surface expression functional score (log10)” value of the first is lower: -1.42 for the first, 0.08 for the second.

Going from I90S to D275Y, the “SGCB cell-surface expression functional score (log10)” value rises from -0.35 to 0.17.

First: G139N
Second: V145G
The “SGCB cell-surface expression functional score (log10)” value of the first is higher: 0.52 for the first, -0.81 for the second.

First: L249N
Second: R174C
The “SGCB cell-surface expression functional score (log10)” value of the first is higher: -0.2 for the first, -0.43 for the second.

Going from T266V to V27Q, the “SGCB cell-surface expression functional score (log10)” value falls from 0.35 to 0.09.

Going from K286Y to N312W, the “SGCB cell-surface expression functional score (log10)” value rises from -0.08 to 0.57.

First: G117L
Second: K286N
The “SGCB cell-surface expression functional score (log10)” value of the first is lower: -1.42 for the first, -0.03 for the second.

First: R29C
Second: I137F
The “SGCB cell-surface expression functional score (log10)” value of the first is higher: 0.5 for the first, -0.01 for the second.

Going from V195M to V85D, the “SGCB cell-surface expression functional score (log10)” value rises from -0.5 to -0.21.

Going from I45Y to M243N, the “SGCB cell-surface expression functional score (log10)” value rises from 0.68 to 1.08.

Compared with L216T, I166T is higher in “SGCB cell-surface expression functional score (log10)” value: -1.02 for the first, 0.36 for the second.

First: G62F
Second: N199W
The “SGCB cell-surface expression functional score (log10)” value of the first is lower: 0.5 for the first, 1.05 for the second.

Going from C67R to S13Q, the “SGCB cell-surface expression functional score (log10)” value rises from 0.08 to 0.29.

First: I78P
Second: I119D
The “SGCB cell-surface expression functional score (log10)” value of the first is higher: -0.22 for the first, -0.97 for the second.

Going from K19V to N253H, the “SGCB cell-surface expression functional score (log10)” value rises from -0.01 to 0.8.

First: N39Y
Second: T175D
The “SGCB cell-surface expression functional score (log10)” value of the first is higher: -0.08 for the first, -0.47 for the second.

First: S105M
Second: K250W
The “SGCB cell-surface expression functional score (log10)” value of the first is lower: -0.33 for the first, 0.02 for the second.

First: I309A
Second: H53F
The “SGCB cell-surface expression functional score (log10)” value of the first is higher: 0.27 for the first, -0.19 for the second.

Going from P94D to S197V, the “SGCB cell-surface expression functional score (log10)” value rises from -1.08 to 1.76.

Compared with L198H, F102R is lower in “SGCB cell-surface expression functional score (log10)” value: -0.37 for the first, -1.14 for the second.

Going from R207C to A224Q, the “SGCB cell-surface expression functional score (log10)” value rises from -0.91 to -0.44.

R30P and E101A are the same in “SGCB cell-surface expression functional score (log10)” value: -0.15 for the first, -0.15 for the second.

First: G236K
Second: D311N
The “SGCB cell-surface expression functional score (log10)” value of the first is lower: -2 for the first, 0.01 for the second.

Going from S264C to L80M, the “SGCB cell-surface expression functional score (log10)” value rises from -0.1 to 0.32.

With E49G the “SGCB cell-surface expression functional score (log10)” value was 0.17.
